The numbers were not newly measured in US20240325609A1, “POLYPEPTIDE MONOLITHS” (Trustees of Tufts College, priority 2015, published 2024), which cites them from elsewhere.

For this series the following is noted: room temperature for 14 days, not encapsulated.

Take “HRP not encapsulated in silk: free horse radish peroxidase enzyme”: the “shelf stability of HRP” value is given as “not shelf-stable”.
